Data published in paper PMC11032371.

Assays:
[1] = molecular target: K63-diUb (UniProt P0CG48); test: ITC; 293 K; 50 mM HEPES pH 7.4, 50 mM NaCl, 0.5 mM TCEP; cell 50–100 μM, syringe usually 10-fold; 20 injections of 2 μl; averages of at least two experiments; which partner was in the syringe not stated
[2] = molecular target: K48-diUb (UniProt P0CG48); test: as above

## N4BP1 (850–893) (from UniProt Q6A037 850-893) (domain or fragment)
[1]
  Kd: 16.7 µM
  dH: -5.88 kcal/mol
  stoichiometry N: 1.71
[2]
  Kd: 47 µM
  dH: -5.87 kcal/mol
  stoichiometry N: 1.29
